Assay results: article PMC11253692

Biological target: TGF-β1 (human, UniProt P01137 279-390)
Assay: ELISA

Chain of TGF-β1 (P01137 279-390): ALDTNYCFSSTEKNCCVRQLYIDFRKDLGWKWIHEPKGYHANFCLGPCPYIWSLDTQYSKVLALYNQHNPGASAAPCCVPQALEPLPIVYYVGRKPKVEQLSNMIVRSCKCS

B1: TGF-β1 aptamer (ssDNA)
DNA: CGCTCGGCTTCACGAGATTCGTGTCGTTGTGTCCTGTACCCGCCTTGACCAGTCACTCTAGAGCATCCGGACTG
modifications: 5'-SH (coupled to PEG-maleimide hydrogel)
  binding signal: > 60 % bound (highest binding ratio, reached at 4 h)
